Measurements published in PMC10681739, “High-throughput data and modeling reveal insights into the mechanisms of cooperative DNA-binding by transcription factor proteins”.

B1: Table S2 C row 153 (dsDNA)
DNA 1: GTAACAACACCAAGGACCACAAATGTGTATGTTGAA
DNA 2: TTCAACATACACATTTGTGGTCCTTGGTGTTGTTAC
B2: Table S2 C row 3 (dsDNA)
DNA 1: GCGAGAGCAGCAAGAACCACACCCAGCAGCAATGTC
DNA 2: GACATTGCTGCTGGGTGTGGTTCTTGCTGCTCTCGC
B3: Table S2 C row 168 (dsDNA)
DNA 1: AACAGATACTCAAAAACCGCTGGCTGAACACATGGA
DNA 2: TCCATGTGTTCAGCCAGCGGTTTTTGAGTATCTGTT
B4: Table S2 C row 38 (dsDNA)
DNA 1: CAATTTAGCCTTTTAACCACTAAACTCCCTTGCCTA
DNA 2: TAGGCAAGGGAGTTTAGTGGTTAAAAGGCTAAATTG
B5: Table S2 C row 22 (dsDNA)
DNA 1: CTTGTTCAAGCAATTTGAGGTTTTTTAGGGAGGTTG
DNA 2: CAACCTCCCTAAAAAACCTCAAATTGCTTGAACAAG
B6: Table S2 C row 119 (dsDNA)
DNA 1: GGAAAGGTTGACGATAGTGGTTAAGTGGCTCGGCCT
DNA 2: AGGCCGAGCCACTTAACCACTATCGTCAACCTTTCC
B7: Table S2 B row 1486 (dsDNA)
DNA 1: TCTGTCGTCCCACTTCCTGCTGCGGATTCCACCTCG
DNA 2: CGAGGTGGAATCCGCAGCAGGAAGTGGGACGACAGA
B8: Table S2 C row 99 (dsDNA)
DNA 1: ACAAGCATTTGATTCTGTGGGTCCCCAATGTTGGAA
DNA 2: TTCCAACATTGGGGACCCACAGAATCAAATGCTTGT
B9: Table S2 C row 170 (dsDNA)
DNA 1: TCCTGAACTATTCACTGTGGTGATGAAATATGCTAA
DNA 2: TTAGCATATTTCATCACCACAGTGAATAGTTCAGGA
B10: Table S2 C row 84 (dsDNA)
DNA 1: ATCTATTATGAGCCTACCACCATGCTAGACAAGTTG
DNA 2: CAACTTGTCTAGCATGGTGGTAGGCTCATAATAGAT
B11: Table S2 C row 1 (dsDNA)
DNA 1: CCCTCATCTGAGAACACCACATTTCTCCCTCTGTCA
DNA 2: TGACAGAGGGAGAAATGTGGTGTTCTCAGATGAGGG
B12: Table S2 C row 117 (dsDNA)
DNA 1: ACAGAGCCATTACCTACCACAGAGCTGACGTGAACA
DNA 2: TGTTCACGTCAGCTCTGTGGTAGGTAATGGCTCTGT
B13: Table S2 C row 138 (dsDNA)
DNA 1: AGTAGTGCTTTTTCAACCACAGACCAACATTTGAGA
DNA 2: TCTCAAATGTTGGTCTGTGGTTGAAAAAGCACTACT
B14: Table S2 C row 154 (dsDNA)
DNA 1: CCGTAATCTTCATAAACCTCAATGCTCAAGGTGCAG
DNA 2: CTGCACCTTGAGCATTGAGGTTTATGAAGATTACGG
B15: Table S2 C row 64 (dsDNA)
DNA 1: GACAGAAAGCAAATTAGTGGTAGCCAAGGGCTAGGG
DNA 2: CCCTAGCCCTTGGCTACCACTAATTTGCTTTCTGTC
B16: Table S2 C row 176 (dsDNA)
DNA 1: ATATCCACTCAGTAGTGTGGTTTGTAAGGACTAAAT
DNA 2: ATTTAGTCCTTACAAACCACACTACTGAGTGGATAT
B17: Table S2 C row 81 (dsDNA)
DNA 1: AGCCTGACTCTGTGCTGTGGTTGTGAGGCTGGAATG
DNA 2: CATTCCAGCCTCACAACCACAGCACAGAGTCAGGCT
B18: Table S2 B row 4091 (dsDNA)
DNA 1: GGCATTCACTTCCGGTCTGGGGCCTACGGCGGCGGC
DNA 2: GCCGCCGCCGTAGGCCCCAGACCGGAAGTGAATGCC
B19: Table S2 B row 123 (dsDNA)
DNA 1: ACAACCCGGAAGTTGGCGCAGCGCGCTTGCCAATGG
DNA 2: CCATTGGCAAGCGCGCTGCGCCAACTTCCGGGTTGT
B20: Table S2 C row 4 (dsDNA)
DNA 1: GAAAGAGCGAAATGTTGCGGTTTAGTTAATGCTTTG
DNA 2: CAAAGCATTAACTAAACCGCAACATTTCGCTCTTTC
B21: Table S2 B row 4089 (dsDNA)
DNA 1: GCTGTTTCCTGCTGATAAAAACACCCCTCAACTTCA
DNA 2: TGAAGTTGAGGGGTGTTTTTATCAGCAGGAAACAGC
B22: Table S2 B row 185 (dsDNA)
DNA 1: GCCAGGAGGACTTCCGGGTGGGTGTGATATCTGCGA
DNA 2: TCGCAGATATCACACCCACCCGGAAGTCCTCCTGGC
B23: Table S2 B row 1811 (dsDNA)
DNA 1: GGTTTCGCTTCCGGGTTAGGCGGCCGGAGAAGCGTA
DNA 2: TACGCTTCTCCGGCCGCCTAACCCGGAAGCGAAACC
B24: Table S2 B row 3124 (dsDNA)
DNA 1: TCCACATCCTGCTCCTCGGGTTTACGGCGAGGACTC
DNA 2: GAGTCCTCGCCGTAAACCCGAGGAGCAGGATGTGGA
B25: Table S2 B row 2731 (dsDNA)
DNA 1: AGAACCACTTCCTCTCAGTAAATCACAGAGACTGTA
DNA 2: TACAGTCTCTGTGATTTACTGAGAGGAAGTGGTTCT
B26: Table S2 B row 2712 (dsDNA)
DNA 1: TGGGGCGAAATCCACTGACTTCCGGCTACGCCGTTG
DNA 2: CAACGGCGTAGCCGGAAGTCAGTGGATTTCGCCCCA
B27: Table S2 B row 2131 (dsDNA)
DNA 1: CTACTTTCCGGTCAACGCGGCCTGGGGTACCACCTC
DNA 2: GAGGTGGTACCCCAGGCCGCGTTGACCGGAAAGTAG
B28: Table S2 B row 3533 (dsDNA)
DNA 1: CCATTTCCCGCCTACCGACCTGCTGCACCTCACGGA
DNA 2: TCCGTGAGGTGCAGCAGGTCGGTAGGCGGGAAATGG
B29: Table S2 B row 1635 (dsDNA)
DNA 1: GGACAGGAAGTTCCTGCAGCTTCTACCCCAAACCTA
DNA 2: TAGGTTTGGGGTAGAAGCTGCAGGAACTTCCTGTCC
B30: Table S2 B row 741 (dsDNA)
DNA 1: CAACTTCCGGGGCCGGTTGCCTGGCAACAGCAGGAG
DNA 2: CTCCTGCTGTTGCCAGGCAACCGGCCCCGGAAGTTG
B31: Table S2 B row 1299 (dsDNA)
DNA 1: AGGAGTGTCACTTCCTCTTTCCTCACCAGAGCCTCC
DNA 2: GGAGGCTCTGGTGAGGAAAGAGGAAGTGACACTCCT
B32: Table S2 B row 2669 (dsDNA)
DNA 1: CCCCTCAGCTTCCGGGTGCTGCGCCCGAGGCCGAGA
DNA 2: TCTCGGCCTCGGGCGCAGCACCCGGAAGCTGAGGGG

Molecular target: T1, ETS1 (Homo sapiens, UniProt P14921)
T1 sequence: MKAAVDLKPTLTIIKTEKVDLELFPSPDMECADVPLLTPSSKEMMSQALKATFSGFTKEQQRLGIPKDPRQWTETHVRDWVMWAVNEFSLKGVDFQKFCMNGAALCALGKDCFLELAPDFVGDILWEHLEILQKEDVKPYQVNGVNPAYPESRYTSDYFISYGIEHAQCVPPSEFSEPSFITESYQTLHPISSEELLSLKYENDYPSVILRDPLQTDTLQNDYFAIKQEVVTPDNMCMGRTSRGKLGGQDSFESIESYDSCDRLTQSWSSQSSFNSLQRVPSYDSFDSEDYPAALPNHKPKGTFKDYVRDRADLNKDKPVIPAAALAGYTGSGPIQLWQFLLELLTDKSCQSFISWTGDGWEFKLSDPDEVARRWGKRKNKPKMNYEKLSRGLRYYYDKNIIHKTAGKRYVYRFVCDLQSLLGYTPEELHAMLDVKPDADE
Assay: gcPBM; 1 nM ETS1
Settings: tags: N-terminal GST (pDEST15), kept (PMC6008103); label: surface-attached array probe

Row | Binder | binding signal
1 | B1 | 421 PBM fluorescence, median of replicate spots
2 | B2 | 422 PBM fluorescence, median of replicate spots
3 | B3 | 425 PBM fluorescence, median of replicate spots
4 | B4 | 426 PBM fluorescence, median of replicate spots
5 | B5 | 428 PBM fluorescence, median of replicate spots
6 | B6 | 429 PBM fluorescence, median of replicate spots
7 | B7 | 12200 PBM fluorescence, median of replicate spots
8 | B8 | 431 PBM fluorescence, median of replicate spots
9 | B9 | 432 PBM fluorescence, median of replicate spots
10 | B10 | 434 PBM fluorescence, median of replicate spots
11 | B11 | 436 PBM fluorescence, median of replicate spots
12 | B12 | 437 PBM fluorescence, median of replicate spots
13 | B13 | 437 PBM fluorescence, median of replicate spots
14 | B14 | 438 PBM fluorescence, median of replicate spots
15 | B15 | 439 PBM fluorescence, median of replicate spots
16 | B16 | 440 PBM fluorescence, median of replicate spots

Row | Binder | binding signal
17 | B17 | 440 PBM fluorescence, median of replicate spots
18 | B18 | 37100 PBM fluorescence, median of replicate spots
19 | B19 | 12000 PBM fluorescence, median of replicate spots
20 | B20 | 442 PBM fluorescence, median of replicate spots
21 | B21 | 11800 PBM fluorescence, median of replicate spots
22 | B22 | 11300 PBM fluorescence, median of replicate spots
23 | B23 | 11000 PBM fluorescence, median of replicate spots
24 | B24 | 10800 PBM fluorescence, median of replicate spots
25 | B25 | 10400 PBM fluorescence, median of replicate spots
26 | B26 | 10100 PBM fluorescence, median of replicate spots
27 | B27 | 9890 PBM fluorescence, median of replicate spots
28 | B28 | 9790 PBM fluorescence, median of replicate spots
29 | B29 | 9480 PBM fluorescence, median of replicate spots
30 | B30 | 35000 PBM fluorescence, median of replicate spots
31 | B31 | 9350 PBM fluorescence, median of replicate spots
32 | B32 | 9110 PBM fluorescence, median of replicate spots
